The values that follow come from US20110229525A1 (VANDERBILT UNIVERSITY, published 2011).

This assay has as its target JAK2 (UniProt Q62120 1-1132). As to the kind of experiment: cell-based or functional assay.

Where only a bound is given, the exact number is not on record here.

Sequence of JAK2 (Q62120 whole entry): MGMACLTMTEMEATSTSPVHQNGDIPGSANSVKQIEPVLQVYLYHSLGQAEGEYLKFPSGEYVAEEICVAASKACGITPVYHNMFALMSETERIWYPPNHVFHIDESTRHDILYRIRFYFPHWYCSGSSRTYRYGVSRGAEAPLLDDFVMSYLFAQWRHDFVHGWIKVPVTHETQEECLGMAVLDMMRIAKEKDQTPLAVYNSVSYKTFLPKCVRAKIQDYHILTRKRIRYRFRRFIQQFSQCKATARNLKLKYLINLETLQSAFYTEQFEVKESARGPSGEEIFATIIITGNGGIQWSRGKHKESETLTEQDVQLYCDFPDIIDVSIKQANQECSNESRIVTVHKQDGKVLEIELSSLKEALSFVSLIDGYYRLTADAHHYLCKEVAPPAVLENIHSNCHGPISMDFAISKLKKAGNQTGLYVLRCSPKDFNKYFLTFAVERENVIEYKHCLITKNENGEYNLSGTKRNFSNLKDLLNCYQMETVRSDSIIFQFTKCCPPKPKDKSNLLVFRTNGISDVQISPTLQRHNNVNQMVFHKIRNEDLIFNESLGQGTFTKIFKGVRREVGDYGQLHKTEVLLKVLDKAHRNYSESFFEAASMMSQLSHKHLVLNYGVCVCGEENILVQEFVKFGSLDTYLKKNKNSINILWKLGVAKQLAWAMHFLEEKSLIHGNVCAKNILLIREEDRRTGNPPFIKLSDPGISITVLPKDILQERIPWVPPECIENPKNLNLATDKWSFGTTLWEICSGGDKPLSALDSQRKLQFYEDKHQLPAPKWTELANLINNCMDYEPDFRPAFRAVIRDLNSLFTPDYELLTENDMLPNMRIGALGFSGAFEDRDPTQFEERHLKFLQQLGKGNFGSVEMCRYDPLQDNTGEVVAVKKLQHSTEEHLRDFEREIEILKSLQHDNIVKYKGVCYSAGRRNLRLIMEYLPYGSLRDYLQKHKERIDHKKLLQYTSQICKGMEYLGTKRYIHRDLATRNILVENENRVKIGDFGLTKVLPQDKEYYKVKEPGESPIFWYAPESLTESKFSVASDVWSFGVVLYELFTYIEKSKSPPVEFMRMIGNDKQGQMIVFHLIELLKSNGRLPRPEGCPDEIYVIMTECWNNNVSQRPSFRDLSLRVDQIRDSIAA

B1: CP-SOCS1 (recombinant cell-penetrating murine SOCS1 with MTM and 6x histidine tag) (other, human;murine, UniProt P08620 7-22, looked up, not shown: small tags and cut ends)
chain: AAVALLPAVLLALLAPMVARNQVAADNAISPAAEPRRRSEPSSSSSSSSPAAPVRPRPCPAVPAPAPGDTHFRTFRSHSDYRRITRTSALLDACGFYWGPLSVHGAHERLRAEPVGTFLVRDSRQRNCFFALSVKMASGPTSIRVHFQAGRFHLDGSRETFDCLFELLEHYVAAPRRMLGAPLRQRRVRPLQELCRQRIVAAVGRENLARIPLNPVLRDYLSSFPFQI
With B1, the “concentration of CP-SOCS1 that inhibited phosphorylation of STAT1 by 50% (IC50), AMJ2.C8 macrophages stimulated with IFN-g and LPS” value was less than 1900 µM.
